Assay results as given in article PMC7762956 (The Journal of Biological Chemistry, 2020).

Biological target: the molecule itself
Assay: SEC

B1: murine Ifit1b with a C-terminal His8 tag (natural protein)
chain: MEQLLSPSNMSEESHKSHIHDSLDELRCHFTWELDIKDKHIHDLEIKISETEFRDPIYSIGMHNLLAYVRHLKGQQDEALQSLKEAEALIQSEQLSKRSLATWGNCAWLHYHRGSLAEAQVYLDKVEKVCKEFSSPFRYRLECAEMDCEEGWALRKCGSQNYTRAMACFERALKVEPENPEYNAGYADVAYHLDYYDGNSLQPLKKAVSVKPEDPYLKVLLALKLQDLRKTDEAEKHIKEATLTISSQNNIFGYVAKFYRRKGCVEEALGFLKKALETKPSSPYLHFQIGLCHKTQFFQMKKATSRENRKRADQSCHLAICHFKKTLELKPTYDRAYIDLAEVYAKNHQQKEAEDNFQEVLSMSNLGDYMQQEIHFRYGNFQQYYKKSEEAAITHYLKGLKIEVTSHYRDKLLKALEELAEGRKEDHVLESLSLLGLVCRLRGDTSEAMSCYEKALRLTGAVNPEF
stoichiometry N: 2

B2: murine Ifit1 with a C-terminal His8 tag (natural protein)
chain: MGENADGDQVMENLLQLRCHFTWKLLFENNDIPDLEVRISEQVQFLDIKNPLGMHNLLAYVRHLKGQQDEALQSLKEAEALIQSEQLSKRSLATWGNCAWLHYHRGSLAEAQIYLDKVEKVCKEFSSPFRYRLECAEMDCEEGWALLKCGGGNYKQAMACFAKALKVEPENPEYNTGYAVVAYRQDLDDNFISLEPLRKAVRLNPEDPYLKVLLALKLQDLGEHVEAEAHIEEALSSTSCQSYVIRYAAKYFRRKHRVDKALHLLNRALQASPSSGYLHYQKGLCYKQQISQLRTSRNRQPRRQDNVQELAQQAIHEFQETLKLRPTFEMAYVCMAEVQAEIHQYEEAERNFQKALNNKTLVAHIEQDIHLRYGRFLQFHKQSEDKAITLYLKGLKVEEKSFAWRKLLTALEKVAERRVCQNVHLVESTSLLGLVYKLKGQEKNALFYYEKALRLTGEMNPAF
stoichiometry N: 2
